Measured values: the DeepSol protein solubility set

Experiment: soluble on expression in E. coli; label from the status in PepcDB or PDB records

Sequence	soluble on expression in E. coli
MGSDKIHHHHHHMNYLVISPFYPENFQPFTIELAKKEGVTVLGIGQEPYDQLPEELRNALTEYFRVEDLENIDEVKRAAAFLIYKHGPIDRVESHNEYWLENDAALREQFNIFGAKPKHLKKTKFKSEMKKYFKKAGVPVVPGVVVKSERDFGRALKNVGFPMIAKPDNGVGASGTFKIENKEDFDRFVETWDGATIYFLEKFVNSSIITTYDGLLDHEGNVVFETGLTYVHTPLELMLSRKDNAYFIEKELDPQLVKYGRAIIKAFGMRERFFHIEFFKDGDDYIAIEYNNRMAGGFTVEAYNYAHSIDLFRDYANVATGGTVEERRFEPQYCLVATRRDTTEYVHSADDIHQKFAGKIKTVKRMPDAFAELQGNDAYLLVTESKKELDEMIAYIGLTK	not soluble
MGSDKIHHHHHHMNFLVRNLVENLEEGDRVILDVTHSFRSIPLMASVVALYLKEAKDVNVSVVYGKYNKETKVTECEDLTPLTKATSWIYAVRLFKEYGYAKELADLIKKRNEEIYRRSQSSKKPKLLGSMSQKLQDLSSSIRLGSIVAIRKNLTNFFNFIDRNKARIREETEVFVPEIAALLDGIEKRYRVIHVKSENFELSEKELESEKELLDFYLQTGDLGMALRLAREYLINVYLMSGGEKSDFLDRNVRESVSISTFGYDTILQARNHVAHFGFNKLQLPSLKKIEDHLKVLVQTPPEQLLESARKTQRNRKRALLTPLGTTKGALYTVLKKISPDLLLVITSKQGKAILSEILEKAEFKGEFRVILLEDPFMGVSEIDRVVSEIKEHLSDVDEVIVNLTGGTTFLTYVIERAKNQIRYGRKVKTILAVDKRTYEEQKQNPFVVGEILELD	not soluble
MAHHHHHHMWRRGVAAVPLPLWQGKLLQLVHHRALSTDTTGDEATAWSRAMEAKYGTGTYKLFRPLYKDLSDEMRLEAYTKPPAPMQGWSVHHDEAVNLAIFSHKGDSRSRTARVVAYSPITVENPESLNPLLYFMDWYPINVLMERNGVVVHFSIASTEGGMHMRNVRVYKAQDELSPNDPEKQDLPNRDSECERLMSTTDDAAWVRHNLYYDGPCLWHLELDMLNELYDVMQDHGVTLDWVRWVAEWVHYLEHVSYVRWALGVLQELIPVDERGPEDDFLTFEEKEALATPPEEWLEAHYI	not soluble
MGSDKIHHHHHHMTQRTFTPPWWARNPHVQTILPVLTKVNKPALTRQRLELEDGDFIDLDWLAKPTQTAPTQIEPIVVLVHGLEGSADSHYARRLLTLLDDHKVAALVHHHRSCSGVTNRLARSYHSGDTQDLHTTLSQLRRDYPDSPLLAVGYSLGGNVLTKYMGEHGSDSLVDRAVVISAPLQLGACAKRLRHGFSKVYQSYLIKQLQQKVRDKLALPDLSAQMPVTQAEVESLTTFHLFDDRVTAPLHGFDGVEDYYRRASGLPYLSQVAKPTLVIHAKDDPFMTDEVIPTQEALSPQVTYELHPQGGHVGFIDGGHPFKPRYYLEQRIVHFLLEA	not soluble
PRTVKELTVSAGDNLIITLPDNEVELKAFVAPAPPVETTYNYEWNLISHPTDYQGEIKQGHKQTLNLSQLSVGLYVFKVTVSSENAFGEGFVNVTVKPAR	soluble
MGHHHHHHSHLEDFFKNMVKSADGVIVSGVKDVDDFFEHERTFLLEYHNRVKDASAKSDRMTRSHKSAADDYNRIGSSLYALGTQDSTDICKFFLKVSELFDKTRKIEARVSADEDLKLSDLLKYYLRESQAAKDLLYRRSRSLVDYENANKALDKARAKNKDVLQAETSQQLCCQKFEKISESAKQELIDFKTRRVAAFRKNLVELAELELKHAKGNLQLLQNCLAVLNGDT	not soluble
MAHHHHHHMNVEVTGRCFFTGDDYYISLPITNRAANRGEPRQLLCSEMIHWDDYRQERGINDGKPPMQQLFASSYAEPLVRTFALGNDTYVTQVTGVSATQAGSSSQMFSAEMLHWDDYCAARGINAGEPTMASLFRPFESKSILVFDLNERKLTEFEGNSVALISYGADRQTYCSEMEHRDDYIRAKTGQAPQPSMASLFA	not soluble
MTRKIDYLNYEEIQSLKNSLLHNIKHTYISRYMILTALYTGMRPGEIAVLTWSDIDFKNQTININKSYNHDKGRVDNYDSSEIDKSTKNTNSVRIIKVDKKFLDILSQLKQNDHEKIFIGKDGTIPTSNAVNKVWRKQLEKLNIDKPSFHFHSVRHTHVALLPFKGVPLYAISKRLGHANMSTTAKKYAYMLDELKQQVRLEHHHHHH	not soluble
MGSDKIHHHHHHLRILNTAATGVRAQQTALDVLGNNMSNVNTPGYKAQRVNFAEALAAEMRPAEREFNGQPVGERIDVGAGVIYPTIDTDYRQGIIRETENPFDLAIDGEGFFPVRTANGESRYTRVGNFELDSQGKLVNSDGYILEVKIPADAMDLYVDETGNITGFIDDEERVLGRVVVNDPEGEGYPVGPIDMDELGRPLDWNGDILPTAFAVPEGAEDVQISTEGILSATIDGSRQTLGQINIITFANPEGLVRDGDNLYFAPDAAGVTGDELVGTPGSQVEERTLGKLKTQSLEQSNVNLASAMTEMIQVQRAYQLNARMITNGDQMWSMANSLRR	not soluble
MNETIRRILAESGTKTSKIRKLLLIGLSHREIADLLTRGNRGFVWNVYKRMRDEGLLPASQTATVLRPEPDYTFNRCFGVEIEAYNCPRQTLTDALREAGIPVEIGSRNAETNSNWKLTTDGSLEGSHTFELVSPILCGEQGLEVLERVCWVLDAYNVKINSSCGVHVHFNAGDFNLTTWQNLILSYKHAETEIDKFMPASRRGNRNTYCRSLRGFSDEDIRSAESIESLQRLFGSRYMKVNLEAYSRHRTVEFRQHSGTINFTKIENWVRFLGRMIIFASTASLPAGIRLEDFPFLGEKQKLYYKLRTKKLMV	not soluble
MSFRFLILLLLASTLLVNSFPIGKDNESDESEVEVDTTTEAENIEVESQEASLDEQLNEVSEDPTREKRGLYSSERTEEEVEISHGMHHREKRHSEHLPHPDPPSHTAKRSTEHHRVKRSEGHPHEKKATHSPEGHIVAKDDHHGHEKRSSDSHHGHQKRSVDEHHGHQKKNAEDHHEHQKRSEHVEHQAEMHEHQKRSTQEVSGHPEHHLVKRSGGEGGHRHHRSTDQGLDEDEPEDEIQTDENDEVTEEPGSRKRRNTDTPMPSFPSDHDSEHSNSVAIRVKRVSRAGSSHKVRTLNKNRGNSKAGETTQNDSLTPNSGGVFNS	not soluble
MAHHHHHHMGNKLCCINNDLQNSKSSIDIYKYDPREIYGDYDDWTLESWIDKYKNGNSIKVAFPDGNEIQCHFKIFLKERCFELSLDNKVRVIKFNDINCILHRNSCESLLESEQNLLKSPKVIGIRLISTLKAIAFAMDSPGEARMFYEFIEKYCLNG	not soluble
TDLSQRPRRLRKSPALRAMFEETTLSLNDLVLPIFVEEEIDDYKAVEAMPGVMRIPEKHLAREIERIANAGIRSVMTFGISHHTDETGSDAWREDGLVARMSRICKQTVPEMIVMSDTCFCEYTSHGHCGVLKEHGVDNDATLENLGKQAVVAAAAGADFIAPSAAMDGQVQAIRQALDAAGFKDTAIMSYSTKFASSFYGPFREAAGSALKGDRKSYQMNPMNRREAIRESLLDEAQGADCLMVKPAGAYLDIVRELRERTELPIGAYQVSGEYAMIKFAALAGAIDEEKVVLESLGSIKRAGADLIFSYFALDLAEKKILR	soluble
MSLGLLDNVKKMVKKEATENPQQTSDDQKQVQAIHVTNGIDPKVIDAMNERMTKIENDLGKLSGEMEGQKKTLNDIKNELEGIKENVKMVVSLYELVSRDFNPFMDKTPEEIRGITDTLAEQVNNVKQLVEAAIKDLRELYGVPDIDQFIQMEEKKEGHHHHHH	soluble
MAPQNKPYFTYNNEIIGEATQSNPLGNVVRTTISFKSDDKVSDLISTISKAVQFHKNNSASGENVTINENDFINQLKANGVTVKTVQPSNKNEKAYEAIDKVPSTSFNITLSATGDNNQTATIQIPMVPQGASTPTDTTQNPQINWTKGGQAQSSSLNGQVFQVAVGSNFNPLNFTNSNGENIIVSAQQSKNNTTFASIEATSNPVNTSEAGRYYNVTLTATGNTGKKTTATYTVLITSSQKQTLYGNGESTISTYSIYGNNVLSNSTTFKDGDQVYVSDQTKTVGGVSYSQVSPKSKNDANSSNIWVKTSALVKPAGDTNVKTYPVMVDSRAYDKNGNYLGHMYYAYDNIDIVPTVVTINGKTYYKVANKDEYVRVTNITGNQRTLKHNAYIYWSSYRRTPGTGKMYRGQTVTTYGPQMKFKNGKKYYRIEGCRNNNKRYIKAVNFYLEHHHHHH	soluble
HVGYPLLLKWLPLKPKANDEGEHFAERHYKASASDNKLPSVTIIIPAYNEEQWIAEKIRNLASLDYPRDKLKVVIACDGCTDKTAEIAQDTIQEAICSDTLFIVNDHSINRGKVALINEEMKHVTSDITALSDTSALVSCDSLLLASQHYQNEKVGVVNATYQIMRTSNQGEAAYWQYQSRVKHQESLLGSTIGSHGAFYTFRTKLFEPLEAGTINDDFILPMRIVLRGFTSVYEPKMLALELEQSSDDADFKRRLRISAGNMQQLMQLKKLLLPRYRGTAFAFLSGKVLR	not soluble
MIELHQKRLSAPKTYKIPRKVSKWVVKPSPGPHNKEAIPLLVLVRDFLELADTGREARRIISAGEILVDGVVRKDYKFPVGLFDVVTIPKLEKSYRILFDEKGRYIPKEVEDADLKLYKITNKTLVRGGKVQLNLFDGTNILGSNDYKTKDSILLRIPEKEVVDHLKFEEGALVMITGGTHAGEIGRIKSYKIVRSSAPNLVTVEGEERDITTIEDYVFVVGKKDSDKPVIDLGVLEHHHHHH	soluble
SANPKLLGLELSEAEAIGADSARFEELLLQASKELQQAQTTRPESTQIQPQPGFCIKTNSSEGKVFINICHSPSIPPPADVTEEELLQMLEEDQAGFRIPMSLGEPHAELDAKGQGCTAYDVAVNSDFYRRMQNSDFLRELVITIAREGLEDKYNLQLNPEWRMMKNRPFMGSISQQNIRSEQRPRIQELGDLYTPAPGRAESGPEKPHLNLWLEAPDLLLAEIDLPKLDGALGLSLEIGENRLVMGGPQQLYHLDAYIPLQINSHESKAAFHRKRKQLMVAMPLLLVPS	soluble
SLPWLHRETARSFGGAGSTAGYEQVTAYTLTGQLQSRHLNLPQLDCDYDWNDNGQLIRISGPQESREYRYSDTGRLTGVHTTAANLDIDIPYATDPAGNRLPDPELHPDSTLTAWPDNRIAEDAHYVYRYDEYGRLTEKTDRIPEGVIRMHDERTHHYHYDNQHRLVFYTRIQYGEPLVESRYLYDPLGRRTGKRVWRRERDLTGWMSLSRKPEVTWYGWDGDRLTTVQTGTTRIQTVYRPGSFTPLIRIETENGEREKAQRRSLAEKLQQEGSEDGHGVVFPAELVRMLDRLEEEIRADRVSSESRAWLAQCGLTVEQLEKQVEPEYTPARTLHLYHCDHRGLPLALISEDGNTAWSAEYDEWGNQLNEENPHHLHQPYRLPGQQHDEESGLYYNRHRYYDPLQGRYITPDPIGLRGGWNMYQYPLNPIQVIDPMGLDAIENMTSGGLIYAVSGVPGLIVANSITNSAYQFGYDMDAIVGGAHNGAADAMRYCYLMCRMTKT	not soluble
MSLRKFMVLGYGEIGKLAIKHLLSHKVECIYLIVRDKSKASDLEGEIVEVLDFNEKNQVINEIDCIVSCTAAPHTVVRNEDIKTEGETIHIYDLAVPRDVDKELSEKERVILKDIDEISKIDDKNKKIRKERMEEYKHIVEESIDEFLNWLKIREVSSKIRNIKIRENEICSERIKTFSNKGNGENAKLAERMIKSTADAYVNRAIELLKSEALKGSDSYCAEIIEKIFLTEGHHHHHH	not soluble
SLFIDAHNHLDFFEEQEKLNKALDIIKNDNIITLGCSMDTKSYKFTKSLALKNKNIIPCFGIHPSRAHENFKNLECFDEYIRESKIIGEIGLDYVWVKEKEKYPHMKRVFTYFLEEAKKYNKITNIHTKGAESEIYNYIKKYELKTPIIHWYSGDKDTLKKLLDYGCYFTISVDIGYSKLSKEIVQLLPIDKILTETDGPTSLEWVNGDYGYPNVIKNVVKEISKIKNIQEEEVKGVIENNFKTLIRKEGITL	not soluble
